{"source": "paper PMC7448383", "origin": "cited, not measured here", "target": "GST (Schistosoma japonicum) [GST: P08515]"}
{"substance": "GST (from UniProt P08515)", "values": [{"measurement": "Kd", "value": 340, "unit": "nM"}]}
